Measurements as given in PMC3985756 (Biochemistry, 2014).

Target: the molecule itself
Test: crystal structure

B1: N-terminal six-His-tagged FosB from Staphylococcus aureus with a bacillithiol-Cys9 disulfide bond (enzyme)
chain: not shown
modifications: Cys9 in a disulfide bond with bacillithiol (BS-Cys9)
stoichiometry N: 2
